Nine molecules from patent US20250388628A1 (Genentech, published 2025) can be followed below.

The chains are these.
B1: AAV2 VP3 VLP A593E (other)
chain: MATGSGAPMADNNEGADGVGNSSGNWHCDSTWMGDRVITTSTRTWALPTYNNHLYKQISSQSGASNDNHYFGYSTPWGYFDFNRFHCHFSPRDWQRLINNNWGFRPKRLNFKLFNIQVKEVTQNDGTTTIANNLTSTVQVFTDSEYQLPYVLGSAHQGCLPPFPADVFMVPQYGYLTLNNGSQAVGRSSFYCLEYFPSQMLRTGNNFTFSYTFEDVPFHSSYAHSQSLDRLMNPLIDQYLYYLSRTNTPSGTTTQSRLQFSQAGASDIRDQSRNWLPGPCYRQQRVSKTSADNNNSEYSWTGATKYHLNGRDSLVNPGPAMASHKDDEEKFFPQSGVLIFGKQGSEKTNVDIEKVMITDEEEIRTTNPVATEQYGSVSTNLQRGNRQAATEDVNTQGVLPGMVWQDRDVYLQGPIWAKIPHTDGHFHPSPLMGGFGLKHPPPQILIKNTPVPANPSTTFSAAKFASFITQYSTGQVSVEIEWELQKENSKRWNPEIQYTSNYNKSVNVDFTVDTNGVYSEPRPIGTRYLTRNL
notes: VP3-only VLP
B2: AAV2 VP3 VLP T592D (other)
chain: MATGSGAPMADNNEGADGVGNSSGNWHCDSTWMGDRVITTSTRTWALPTYNNHLYKQISSQSGASNDNHYFGYSTPWGYFDFNRFHCHFSPRDWQRLINNNWGFRPKRLNFKLFNIQVKEVTQNDGTTTIANNLTSTVQVFTDSEYQLPYVLGSAHQGCLPPFPADVFMVPQYGYLTLNNGSQAVGRSSFYCLEYFPSQMLRTGNNFTFSYTFEDVPFHSSYAHSQSLDRLMNPLIDQYLYYLSRTNTPSGTTTQSRLQFSQAGASDIRDQSRNWLPGPCYRQQRVSKTSADNNNSEYSWTGATKYHLNGRDSLVNPGPAMASHKDDEEKFFPQSGVLIFGKQGSEKTNVDIEKVMITDEEEIRTTNPVATEQYGSVSTNLQRGNRQAADADVNTQGVLPGMVWQDRDVYLQGPIWAKIPHTDGHFHPSPLMGGFGLKHPPPQILIKNTPVPANPSTTFSAAKFASFITQYSTGQVSVEIEWELQKENSKRWNPEIQYTSNYNKSVNVDFTVDTNGVYSEPRPIGTRYLTRNL
notes: VP3-only VLP
B3: AAV receptor (AAVR) fragment comprising the domains PKD1 and PKD2 (residues V305-V499) (receptor)
chain: VIKELVVSAGESVQITLPKNEVQLNAYVLQEPPKGETYTYDWQLITHPRDYSGEMEGKHSQILKLSKLTPGLYEFKVIVEGQNAHGEGYVNVTVKPEPRKNRPPIAIVSPQFQEISLPTTSTVIDGSQSTDDDKIVQYHWEELKGPLREEKISEDTAILKLSKLVPGNYTFSLTVVDSDGATNSTTANLTVNKAV

For experiment [1], the target named is B3. Kind of experiment: SPR; affinity against wild-type AAV2 VLP. (In SPR one partner is held on a chip, and binding of the other changes the refractive index at the surface.)
Another experiment addresses T1, Wild-type AAV2 VP3 VLP (adeno-associated virus serotype 2 (AAV2), UniProt P03135 203-735).
T1 construct: VP3-only VLP; also called Wild-type AAV2 VLP (WT); WT
Kind of experiment: SPR; captured AAV2 VP3 VLP, AAVR analyte.

The target of the experiment “AAV2 VP3 VLP T592D” is B2. Kind of experiment: SPR; captured AAV2 VP3 VLP, AAVR analyte.
The experiment “AAV2 VP3 VLP A593E” addresses B1. The experiment is described as follows: SPR; captured AAV2 VP3 VLP, AAVR analyte.
The target of a further experiment is T2, AAV2 VP3 VLP T592D/A593E (adeno-associated virus serotype 2 (AAV2), UniProt P03135 203-735).
T2 construct: VP3-only VLP
Kind of experiment: SPR; captured AAV2 VP3 VLP, AAVR analyte.

For experiment [2], the target named is B3. Kind of experiment: SPR; against wild-type VLP.
The target in experiment [3] is B3. The experiment is described as follows: SPR; captured AAV9 VP3 VLP, AAVR analyte.

Take B1: the “Fold change vs WT” value in experiment [1] is roughly 4 fold.

As for B2, the “Fold change vs WT” value in experiment [1] stood at 5 fold.

Consider B3, for which the Kd (as a rule, the equilibrium constant for the complex coming apart) was 2100 nM with Wild-type AAV2 VP3 VLP, 420 nM with AAV2 VP3 VLP T592D, 520 nM in the experiment with AAV2 VP3 VLP A593E and 330 nM with AAV2 VP3 VLP T592D/A593E. Besides, the koff (in general, the rate constant with which the complex falls apart) came to 0.0311 s⁻¹ in the experiment with Wild-type AAV2 VP3 VLP, 0.00797 s⁻¹ in the experiment with AAV2 VP3 VLP T592D, 0.0111 s⁻¹ in the experiment with AAV2 VP3 VLP A593E and 0.00652 s⁻¹ in the experiment with AAV2 VP3 VLP T592D/A593E. For the same molecule, the kon (in general, a measure of how fast the partners come together) with Wild-type AAV2 VP3 VLP stood at 15100 M⁻¹ s⁻¹; with AAV2 VP3 VLP T592D, 19100 M⁻¹ s⁻¹; with AAV2 VP3 VLP A593E, 21600 M⁻¹ s⁻¹; with AAV2 VP3 VLP T592D/A593E, 19600 M⁻¹ s⁻¹.

B4: AAV9 VP3 VLP A273N, A472H, E500P (other)
VP3: MASGGGAPVADNNEGADGVGSSSGNWHCDSQWLGDRVITTSTRTWALPTYNNHLYKQISNSTSGGSSNDNNYFGYSTPWGYFDFNRFHCHFSPRDWQRLINNNWGFRPKRLNFKLFNIQVKEVTDNNGVKTIANNLTSTVQVFTDSDYQLPYVLGSAHEGCLPPFPADVFMIPQYGYLTLNDGSQAVGRSSFYCLEYFPSQMLRTGNNFQFSYEFENVPFHSSYAHSQSLDRLMNPLIDQYLYYLSKTINGSGQNQQTLKFSVAGPSNMHVQGRNYIPGPSYRQQRVSTTVTQNNNSPFAWPGASSWALNGRNSLMNPGPAMASHKEGEDRFFPLSGSLIFGKQGTGRDNVDADKVMITNEEEIKTTNPVATESYGQVATNHQSAQAQAQTGWVQNQGILPGMVWQDRDVYLQGPIWAKIPHTDGNFHPSPLMGGFGMKHPPPQILIKNTPVPADPPTAFNKDKLNSFITQYSTGQVSVEIEWELQKENSKRWNPEIQYTSNYYKSNNVEFAVNTEGVYSEPRPIGTRYLTRNL
notes: VP3-only VLP
B4: the “KD Fold Change” value in experiment [2] worked out at 455 fold. In experiment [3], this molecule showed a dissociation constant (Kd) of 5.14 nM, a dissociation rate constant (koff) of 0.000236 s⁻¹ and a kon of 45900 M⁻¹ s⁻¹.

B5: AAV9 VP3 VLP I451Y, S454I, E500P (other)
chain: MASGGGAPVADNNEGADGVGSSSGNWHCDSQWLGDRVITTSTRTWALPTYNNHLYKQISNSTSGGSSNDNAYFGYSTPWGYFDFNRFHCHFSPRDWQRLINNNWGFRPKRLNFKLFNIQVKEVTDNNGVKTIANNLTSTVQVFTDSDYQLPYVLGSAHEGCLPPFPADVFMIPQYGYLTLNDGSQAVGRSSFYCLEYFPSQMLRTGNNFQFSYEFENVPFHSSYAHSQSLDRLMNPLIDQYLYYLSKTYNGIGQNQQTLKFSVAGPSNMAVQGRNYIPGPSYRQQRVSTTVTQNNNSPFAWPGASSWALNGRNSLMNPGPAMASHKEGEDRFFPLSGSLIFGKQGTGRDNVDADKVMITNEEEIKTTNPVATESYGQVATNHQSAQAQAQTGWVQNQGILPGMVWQDRDVYLQGPIWAKIPHTDGNFHPSPLMGGFGMKHPPPQILIKNTPVPADPPTAFNKDKLNSFITQYSTGQVSVEIEWELQKENSKRWNPEIQYTSNYYKSNNVEFAVNTEGVYSEPRPIGTRYLTRNL
notes: VP3-only VLP
With B5, the “KD Fold Change” value in experiment [2] worked out at 217 fold.

B6: AAV9 VP3 VLP A273N, Q387K, A472H, E500P (other)
VP3: MASGGGAPVADNNEGADGVGSSSGNWHCDSQWLGDRVITTSTRTWALPTYNNHLYKQISNSTSGGSSNDNNYFGYSTPWGYFDFNRFHCHFSPRDWQRLINNNWGFRPKRLNFKLFNIQVKEVTDNNGVKTIANNLTSTVQVFTDSDYQLPYVLGSAHEGCLPPFPADVFMIPQYGYLTLNDGSKAVGRSSFYCLEYFPSQMLRTGNNFQFSYEFENVPFHSSYAHSQSLDRLMNPLIDQYLYYLSKTINGSGQNQQTLKFSVAGPSNMHVQGRNYIPGPSYRQQRVSTTVTQNNNSPFAWPGASSWALNGRNSLMNPGPAMASHKEGEDRFFPLSGSLIFGKQGTGRDNVDADKVMITNEEEIKTTNPVATESYGQVATNHQSAQAQAQTGWVQNQGILPGMVWQDRDVYLQGPIWAKIPHTDGNFHPSPLMGGFGMKHPPPQILIKNTPVPADPPTAFNKDKLNSFITQYSTGQVSVEIEWELQKENSKRWNPEIQYTSNYYKSNNVEFAVNTEGVYSEPRPIGTRYLTRNL
notes: VP3-only VLP
As for B6, the “KD Fold Change” value in experiment [2] came out at 5560 fold. In experiment [3], this molecule displayed a Kd of 0.421 nM, a koff of 3.96e-05 s⁻¹ and a kon of 94000 M⁻¹ s⁻¹.

B7: AAV9 VP3 VLP Q387K, A472H, E500P (other)
VP3: MASGGGAPVADNNEGADGVGSSSGNWHCDSQWLGDRVITTSTRTWALPTYNNHLYKQISNSTSGGSSNDNAYFGYSTPWGYFDFNRFHCHFSPRDWQRLINNNWGFRPKRLNFKLFNIQVKEVTDNNGVKTIANNLTSTVQVFTDSDYQLPYVLGSAHEGCLPPFPADVFMIPQYGYLTLNDGSKAVGRSSFYCLEYFPSQMLRTGNNFQFSYEFENVPFHSSYAHSQSLDRLMNPLIDQYLYYLSKTINGSGQNQQTLKFSVAGPSNMHVQGRNYIPGPSYRQQRVSTTVTQNNNSPFAWPGASSWALNGRNSLMNPGPAMASHKEGEDRFFPLSGSLIFGKQGTGRDNVDADKVMITNEEEIKTTNPVATESYGQVATNHQSAQAQAQTGWVQNQGILPGMVWQDRDVYLQGPIWAKIPHTDGNFHPSPLMGGFGMKHPPPQILIKNTPVPADPPTAFNKDKLNSFITQYSTGQVSVEIEWELQKENSKRWNPEIQYTSNYYKSNNVEFAVNTEGVYSEPRPIGTRYLTRNL
notes: VP3-only VLP
Turning to B7, in experiment [2], the “KD Fold Change” value turned out to be 3370 fold. In experiment [3], this molecule registered a Kd of 0.694 nM, a koff of 0.000338 s⁻¹ and a kon of 487000 M⁻¹ s⁻¹.

B8: AAV9 VP3 VLP I451Y, S454I, E500P, P504I (other)
chain: MASGGGAPVADNNEGADGVGSSSGNWHCDSQWLGDRVITTSTRTWALPTYNNHLYKQISNSTSGGSSNDNAYFGYSTPWGYFDFNRFHCHFSPRDWQRLINNNWGFRPKRLNFKLFNIQVKEVTDNNGVKTIANNLTSTVQVFTDSDYQLPYVLGSAHEGCLPPFPADVFMIPQYGYLTLNDGSQAVGRSSFYCLEYFPSQMLRTGNNFQFSYEFENVPFHSSYAHSQSLDRLMNPLIDQYLYYLSKTYNGIGQNQQTLKFSVAGPSNMAVQGRNYIPGPSYRQQRVSTTVTQNNNSPFAWIGASSWALNGRNSLMNPGPAMASHKEGEDRFFPLSGSLIFGKQGTGRDNVDADKVMITNEEEIKTTNPVATESYGQVATNHQSAQAQAQTGWVQNQGILPGMVWQDRDVYLQGPIWAKIPHTDGNFHPSPLMGGFGMKHPPPQILIKNTPVPADPPTAFNKDKLNSFITQYSTGQVSVEIEWELQKENSKRWNPEIQYTSNYYKSNNVEFAVNTEGVYSEPRPIGTRYLTRNL
modifications: One VP3 subunit is given; in the assay it stood assembled as a VP3-only icosahedral VLP capsid.
notes: VP3-only VLP
Turning to B8, the “KD Fold Change” value in experiment [2] was determined as 214 fold.

B9: AAV9 VP3 VLP I451Y, S454I, E500P, P504T (other)
chain: MASGGGAPVADNNEGADGVGSSSGNWHCDSQWLGDRVITTSTRTWALPTYNNHLYKQISNSTSGGSSNDNAYFGYSTPWGYFDFNRFHCHFSPRDWQRLINNNWGFRPKRLNFKLFNIQVKEVTDNNGVKTIANNLTSTVQVFTDSDYQLPYVLGSAHEGCLPPFPADVFMIPQYGYLTLNDGSQAVGRSSFYCLEYFPSQMLRTGNNFQFSYEFENVPFHSSYAHSQSLDRLMNPLIDQYLYYLSKTYNGIGQNQQTLKFSVAGPSNMAVQGRNYIPGPSYRQQRVSTTVTQNNNSPFAWTGASSWALNGRNSLMNPGPAMASHKEGEDRFFPLSGSLIFGKQGTGRDNVDADKVMITNEEEIKTTNPVATESYGQVATNHQSAQAQAQTGWVQNQGILPGMVWQDRDVYLQGPIWAKIPHTDGNFHPSPLMGGFGMKHPPPQILIKNTPVPADPPTAFNKDKLNSFITQYSTGQVSVEIEWELQKENSKRWNPEIQYTSNYYKSNNVEFAVNTEGVYSEPRPIGTRYLTRNL
modifications: One VP3 subunit is given; in the assay it stood assembled as a VP3-only icosahedral VLP capsid.
notes: VP3-only VLP
With B9, the “KD Fold Change” value in experiment [2] came to 146 fold.
